“And” between values parts separate entries of the source, which are not always exact repeats. Equal entries are not always repeated.
What was measured:
Assay in all cases: Efflux of pre-loaded L-[14C]alanine from HEK293-hLAT2 cells induced by extracellular compounds
Format in all cases: cell-based, human
Conditions in all cases: other: LAT2, L-[14C]alanine efflux, 1 min; mean ± S.E.M., n = 3; 37.0 °C
[1] = substrate: N[C@]1(C(=O)O)CCc2ccccc2C1
Experimental: (§1) We evaluated the efflux of pre-loaded L-[^14C]leucine from LAT1 and pre-loaded L-[^14C]alanine from LAT2 induced by extracellularly applied compounds.
(§2) Efflux experiments were performed as described previously. Cells cultured 48 h were pre-loaded with 5 μM L-[^14C]leucine or L-[^14C]alanine for 10 min at 37 °C. The cells were then washed, and the efflux was induced by incubating cells for 1 min in either the absence or presence of non-radiolabeled test compounds at indicated concentrations. The efflux time of 1 min fell within the linear range of time-dependent substrate efflux mediated by LAT1 and LAT2 (Supplementary Fig. S2). Following incubation, the medium was collected and radioactivity was measured in both the medium and the cells. Efflux was quantified as the percentage of radioactivity released into the medium, calculated using the formula: radioactivity of medium/(radioactivity of medium + radioactivity of cells) × 100%.
(§3) The kinetic parameters for the efflux of L-[^14C]leucine or L-[^14C]alanine induced by various concentrations of extracellularly-applied test compounds were analyzed. The baseline efflux values—those obtained in the absence of test compounds—were subtracted from the values measured in the presence of the compounds. The resultant data were fitted to Michaelis–Menten kinetics to determine the Km and Vmax by nonlinear regression analysis using “enzyme kinetics-velocity as a function of substrate” module within GraphPad Prism software.

[2] = substrate: N[C@@H](Cc1ccccc1)C(=O)O
Experimental: as §1, §2, §3

[3] = substrate: C[C@](N)(Cc1ccccc1)C(=O)O
Experimental: as §1, §2, §3

[4] = substrate: N[C@@H](Cc1ccccc1I)C(=O)O
Experimental: as §1, §2, §3

B1: human LAT2 (Homo sapiens) (protein)
chain: MEEGARHRNNTEKKHPGGGESDASPEAGSGGGGVALKKEIGLVSACGIIVGNIIGSGIFVSPKGVLENAGSVGLALIVWIVTGFITVVGALCYAELGVTIPKSGGDYSYVKDIFGGLAGFLRLWIAVLVIYPTNQAVIALTFSNYVLQPLFPTCFPPESGLRLLAAICLLLLTWVNCSSVRWATRVQDIFTAGKLLALALIIIMGIVQICKGEYFWLEPKNAFENFQEPDIGLVALAFLQGSFAYGGWNFLNYVTEELVDPYKNLPRAIFISIPLVTFVYVFANVAYVTAMSPQELLASNAVAVTFGEKLLGVMAWIMPISVALSTFGGVNGSLFTSSRLFFAGAREGHLPSVLAMIHVKRCTPIPALLFTCISTLLMLVTSDMYTLINYVGFINYLFYGVTVAGQIVLRWKKPDIPRPIKINLLFPIIYLLFWAFLLVFSLWSEPVVCGIGLAIMLTGVPVYFLGVYWQHKPKCFSDFIELLTLVSQKMCVVVYPEVERGSGTEEANEDMEEQQQPMYQPTPTKDKDVAGQPQP
notes: expressed in transfected cells
Km [1]: 30 µM and 29.96 ± 4.00 µM | Km [2]: 25.21 ± 2.43 µM | Km [3]: 246.49 ± 23.00 µM | Km [4]: 35.34 ± 1.95 µM

— paper PMC10897196, “Structure–activity characteristics of phenylalanine analogs selectively transported by L-type amino acid transporter 1 (LAT1)” (Scientific Reports, 2024)
